In assay [1] the target is T1, Peptide 3-BSA (SSMEDYVNFN-C conjugated to BSA) (human).
T1 peptide: SSMEDYVNFNC(BSA)
Briefly: ELISA; Ab 1 ug/mL; repII. How it is done: (§1) In brief, plates with each non-conjugated peptide (50 μg/mL) or BSA-conjugated peptide (5 μg/mL) were coated in 0.58M carbonate-bicarbonate buffer pH9.5, 100 μL/well, at 4° C. […] After washing, wells were incubated with the 3, 3′,5,5′-Tetramethylbenzidine (TMB) HRP substrate and reactions were stopped with 2M HCl and OD450 was recorded.
For orientation: An ELISA detects its analyte on a solid surface through an enzyme-linked reagent.

The target of assay [2] is T2, Peptide 4-BSA (SMEDYVNFNF-C conjugated to BSA) (human).
T2 peptide: SMEDYVNFNFC(BSA)
Briefly: ELISA; Ab 1 ug/mL; repII. The protocol: as §1

Assay [3] concerns the target T3, Peptide 1, non-conjugated (MADDYGSEST-C) (human).
T3 construct: With the extra C-terminal Cys
T3 peptide: MADDYGSESTC
Briefly: ELISA; Ab 1 ug/mL; repII. The protocol:
as §1

Assay [4] addresses T4, Peptide 2, non-conjugated (GSESTSSMED-C) (human).
T4 construct: With the extra C-terminal Cys
T4 peptide: GSESTSSMEDC
Briefly: ELISA; Ab 1 ug/mL; repII. The protocol:
as §1

Assay [5] deals with T5, Peptide 3, non-conjugated (SSMEDYVNFN-C) (human).
T5 construct: With the extra C-terminal Cys
T5 peptide: SSMEDYVNFNC
Put plainly: ELISA; Ab 1 ug/mL; repII. How it is done: as §1

For assay [6], the target named is T6, Peptide 4, non-conjugated (SMEDYVNFNF-C) (human).
T6 construct: With the extra C-terminal Cys
T6 peptide: SMEDYVNFNFC
Briefly: ELISA; Ab 1 ug/mL; repII. The protocol:
as §1

Assay [7] has as its target T7, BSA (negative control coating) (bovine, UniProt P02769 25-607).
T7 construct: also called Negative control BSA
Briefly: ELISA; Ab 1 ug/mL; repII. The protocol: as §1

The target in assay [8] is T8, antigen peptide-BSA (immunisation peptide #1 MADDYGSESTSSMEDYVNFNF-C conjugated to BSA) (human, extra C-terminal Cys conjugated to BSA).
T8 construct: also called Positive control antigen peptide-BSA; MADDY peptide
T8 peptide: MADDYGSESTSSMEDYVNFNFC
Put plainly: ELISA; Ab 1 ug/mL; repII. The protocol: as §1

The target of assay [9] is T9, Peptide 1-BSA (MADDYGSEST-C conjugated to BSA) (human).
T9 peptide: MADDYGSESTC(BSA)
Put plainly: ELISA; Ab 1 ug/mL; repII. How it is done: as §1

Assay [10] has as its target T10, Peptide 2-BSA (GSESTSSMED-C conjugated to BSA) (human).
T10 peptide: GSESTSSMEDC(BSA)
Briefly: ELISA; Ab 1 ug/mL; repII. How it is done:
as §1

Assay [11] concerns the target T1, Peptide 3-BSA (SSMEDYVNFN-C conjugated …). Briefly: ELISA; Ab 0.125 ug/mL; repI. How it is done:
as §1

Assay [12] has as its target T2, Peptide 4-BSA (SMEDYVNFNF-C conjugated …). Put plainly: ELISA; Ab 0.125 ug/mL; repI. The protocol: as §1
Assay [13] has as its target T3, Peptide 1, non-conjugated (MADDYGSEST-C). Briefly: ELISA; Ab 0.125 ug/mL; repI. The protocol: as §1
For assay [14], the target named is T4, Peptide 2, non-conjugated (GSESTSSMED-C). Briefly: ELISA; Ab 0.125 ug/mL; repI. The protocol:
as §1

In assay [15] the target is T5, Peptide 3, non-conjugated (SSMEDYVNFN-C). Briefly: ELISA; Ab 0.125 ug/mL; repI. How it is done:
as §1

Assay [16] addresses T6, Peptide 4, non-conjugated (SMEDYVNFNF-C). Briefly: ELISA; Ab 0.125 ug/mL; repI. How it is done:
as §1

Assay [17] concerns the target T7, BSA (negative control coating). Briefly: ELISA; Ab 0.125 ug/mL; repI. The protocol:
as §1

The target of assay [18] is T8, antigen peptide-BSA (immunisation …). Put plainly: ELISA; Ab 0.125 ug/mL; repI. The protocol:
as §1

In assay [19] the target is T9, Peptide 1-BSA (MADDYGSEST-C conjugated …). Briefly: ELISA; Ab 0.125 ug/mL; repI. The protocol:
as §1

Assay [20] deals with T10, Peptide 2-BSA (GSESTSSMED-C conjugated …). Put plainly: ELISA; Ab 0.125 ug/mL; repI. The protocol: as §1
Assay [21] deals with T9, Peptide 1-BSA (MADDYGSEST-C conjugated …). Put plainly: ELISA, BSA-conjugated peptide coated. The protocol: as §1
Assay [22] addresses T10, Peptide 2-BSA (GSESTSSMED-C conjugated …). Put plainly: ELISA, BSA-conjugated peptide coated. The protocol:
as §1

For assay [23], the target named is T11, human CCR9 on cells (MOLT-4, SupT1) (human, UniProt P51686 1-369).
T11 construct: whole, on cells; also called C-C chemokine receptor type 9; CDw199
T11 sequence (looked up): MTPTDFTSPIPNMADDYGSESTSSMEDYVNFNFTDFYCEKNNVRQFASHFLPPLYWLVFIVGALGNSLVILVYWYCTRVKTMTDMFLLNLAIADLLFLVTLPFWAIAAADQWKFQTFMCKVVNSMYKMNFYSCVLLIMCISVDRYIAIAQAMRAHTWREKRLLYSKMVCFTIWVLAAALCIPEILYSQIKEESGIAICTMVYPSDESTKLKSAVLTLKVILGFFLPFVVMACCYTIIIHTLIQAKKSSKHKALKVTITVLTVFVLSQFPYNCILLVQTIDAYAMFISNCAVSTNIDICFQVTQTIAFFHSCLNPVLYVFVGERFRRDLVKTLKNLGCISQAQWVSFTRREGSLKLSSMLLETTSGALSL
Put plainly: flow cytometry on 300.19 cells overexpressing human CCR9 against CCR9-negative 300.19 WT cells, detection with anti-mouse-IgG(H+L) A647 [Cont.) B]. A general note: In flow cytometry, cells or beads pass a laser one at a time.

Where no end group is shown, it is not given here.

T7 sequence (P02769 25-607 limits assumed): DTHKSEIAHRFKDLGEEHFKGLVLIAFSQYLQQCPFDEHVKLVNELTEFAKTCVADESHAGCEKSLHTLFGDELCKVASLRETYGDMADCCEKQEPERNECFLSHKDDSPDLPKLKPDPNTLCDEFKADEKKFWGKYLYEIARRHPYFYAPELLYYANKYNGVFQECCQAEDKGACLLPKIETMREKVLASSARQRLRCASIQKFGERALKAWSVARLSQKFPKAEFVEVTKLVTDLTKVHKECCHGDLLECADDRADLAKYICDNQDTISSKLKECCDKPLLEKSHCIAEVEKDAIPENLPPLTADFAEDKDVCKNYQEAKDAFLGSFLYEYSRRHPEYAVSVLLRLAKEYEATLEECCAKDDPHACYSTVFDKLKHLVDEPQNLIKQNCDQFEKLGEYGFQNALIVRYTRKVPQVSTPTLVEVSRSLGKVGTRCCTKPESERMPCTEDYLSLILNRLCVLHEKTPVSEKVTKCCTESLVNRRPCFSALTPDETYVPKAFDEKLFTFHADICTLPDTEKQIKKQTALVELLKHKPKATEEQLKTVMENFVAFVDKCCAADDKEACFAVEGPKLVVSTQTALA

B1: anti-CCR9 antibody clone 115 (murine, from hybridoma #115) (antibody, V domains shown)
VH: QVQLKQSGPELVKPGTSVRVSCTASGYSFTDYIIYWVKQSHGRSLEWIGYIDPNNYNTRYSQKFKGKATLTVDKSSTSAFMHLNSLTSDDSAVYYCARDVYWGQGTTLTVSS
VL: DVVMTQTPLSLTVSLGDQASISCRSSQSLVHSNGKTYLQWYLQKPGQSPKLLIYKVSNRFSGVPDRFSGSGSGTDFTLKISRVEAEDLGVYFCAQSTHVWTFGGGTKLEIKR
notes: Mouse IgG1
In the case of B1, the OD450 in assay [1] was found to be 2.16 OD; in assay [2], 2.75 OD; in [3], 0.02 OD; in assay [4] it was 0.02 OD; in [5], 2.1 OD; in [6], 2.46 OD. The OD450 in assay [7] was found to be 0.02 OD; in assay [8], 2.68 OD; in [9] it was 0.03 OD; in assay [10] it was 0.03 OD; in assay [11], 1.97 OD; in assay [12], 2.23 OD. Further, the OD450 turned out to be 0.01 OD in assay [13]; 0.01 OD in [14]; 1.77 OD in [15]; 1.69 OD in assay [16]; 0.01 OD in assay [17]; 2.15 OD in [18]. Moreover, the OD450 was determined as 0.02 OD in assay [19] and 0.01 OD in assay [20]. For the same molecule, the binding result is “no binding (tested: 1 ug/mL)” in assay [21], “no binding (tested: 1 ug/mL)” in [22] and “binds” in [23].

The record behind these values is patent US20260232732A1 (FUNDACI INSTITUT DE RECERCA CONTRA LA LEUC MIA JOSEP …, published 2026).
